Tested on: K4 kissing-loop RNA reporter
Experiment: apparent KD of K4 kissing-loop reporter; higher = weaker reporter binding
Conditions: Eterna round: R107
Description: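 RNA-MaP round R107: designed RNA switches with theophylline, tryptophan, arginine or FMN aptamers are transcribed on-chip within common flanks. They are titrated with a labelled K4 kissing-loop RNA reporter in RNA-MaP buffer (100 mM Tris pH 7.5, 80 mM KCl, 4 mM MgCl2), without ligand or with the indicated ligand. Median apparent KD per design.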

[1] = input ligand: theophylline 20 uM
[2] = input ligand: tryptophan 2.4 mM
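Further: bound reporter read as fluorescence of individual clusters on recovered sequencing chips by microscopy, with normalized cluster intensities fitted with a binding model.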

| Sequence | apparent KD of K4 kissing-loop reporter (input ligand: FMN 200 uM) [µM] | apparent KD of K4 kissing-loop reporter (input ligand: arginine 13.2 mM) [µM] | apparent KD of K4 kissing-loop reporter (input ligand: none) [µM] | apparent KD of K4 kissing-loop reporter [1] [µM] | apparent KD of K4 kissing-loop reporter [2] [µM] |
| --- | --- | --- | --- | --- | --- |
| CAUACGCAUGGAGGAUAUGAGAUUUCUCAUAUUAUUUAAUAUUCUCAGUGAUGUUGAGAUUUAAACUCAGAAGGCCAUGUGUAUG [Ex FMN B 6] | 0.388 | 0.235 | 0.239 | 0.279 | 0.242 |
| ACGUAGUACGUAGGAUAUCAGAGAUCAGUUAGUGAGAUCGAGUGAUGUUCGAUCAUGUGUUCAGUUUGAGAAGGAUGUAGUAGGA [KL-SSFMN-B5] | 0.214 | 0.28 | 0.355 | 0.408 | 0.198 |
| GAUAUAGUGAUGUUAUAUAAGAAGGAGUUACGAGGACCGGUACGGCCGCCACUCGAAACGAGUGAUGAUUUGGGAGAUUGGGUUG [SSTryptA.O] | 0.38 | 0.33 | 0.35 | 0.339 | 0.265 |
| AGACUUCACCGAAGGAGCGACGUAGCCUAGUGAUGUUAGGCACGAGAGAAAUCUCGUGUACGUCAGGUAGGUCGCGGUGAAGUCA [Omei KL Arginine B SS C v5] | 0.99 | 0.63 | 0.961 | 0.827 | 1.04 |
| GGGCUGGUGCUAGGAUAUGCGAUGAAUGCUCAGAAAACCUUGAGUCCGCAGUGAUGUUGCGGCACCGCAGAAGGAGCUAAGGCUC [Reorinraor] | 0.129 | 0.138 | 0.111 | 0.171 | 0.127 |
| UGAUAGGACAGAAGGAGCGGCAGUGAUGUUGCCAAAAGGGUAAGGUGUCAAAAGACACCCUGCCAGGUAGGUCGCUGUCCUAUCU | 0.166 | 0.173 | 0.162 | 0.163 | 0.134 |
| GCCGAAUCGUUGGGCUCAGUGAUGUUGAUCCGAGGACCGGUACGGCCGCCACUCGAAUGGCAGUGACCACACUGGUAACGUUAAA [theeternabot_exclusion_KL_Trp_A_43] | 0.573 | 0.49 | 0.699 | 0.575 | 0.261 |
| CCGAAGAACCAGUGAUGUUGGUUGACUAGACAGGAUAUGAGCAACAUCAGAAGGGUCUGGCUUCGGGAGUAGGUCGCGCUGACCC [Diarrebi] | 0.482 | 0.231 | 0.624 | 1.26 | 0.231 |
| UAACUUGCAGUGAUGUUGCAAGAACUGGAUACCAGCAUGGAAACAUGCCCUUGGCAGCCAGAAGCUGGCUGACUGCAAGGUCAGC [Design4] | 0.148 | 0.142 | 0.124 | 0.136 | 0.123 |
| CUGGGUUGACGAAAAGUCAACAAAUGAGAAGGAGCGCACGAAAGUGCAGGUAGGUCGCUCAAUCCAGUGAUGUUGGGUCAUCCAG [#SwitchBubble 13 #K4Late] | 0.856 | 0.612 | 0.993 | 0.951 | 0.731 |
| AGCAUUAUCAGAAGGAGCGUGUAUAAAUCAAUAGUAUUGUAUUCGAGUGAUGUUCGUAAUACACAGGUAGGUCGCUGAUAUUGCA [JR_ExcArginiB_Sub002] | 0.182 | 0.172 | 0.17 | 0.175 | 0.161 |
| AGUGAACGAGCGGCCGCCACUAACUGAGUGAUGUUCGUGAGUAGUGCUGUUCUCAUGAUUGUUUUUAGGACCGGGUUCGAUGUUG [ttbjmullin] | 0.483 | 0.329 | 0.391 | 0.431 | 0.36 |
| CGUUUAUAGCAGGAUACCAGUACCCAUAAAGUACGUUAAUAGUAGAGUGAUGUUCUAAAGUACCCUUGGCAGCUUCCAGUGAGUG [ExTheophylB.S] | 0.102 | 0.157 | 0.142 | 0.165 | 0.0853 |
| GUGCGCGCGGCGGCCGCCACUCGCAUGAGAGUGAUGUUCUUGCCCGGGCCGCAAGGCCCGGGUGUGAGGACCGGGCCGGGCUGCG [#2 Same State - Tryptophan B Attempt #26 (HarryS)] | 0.115 | 0.00109 | 0.18 | 0.000148 | 0.425 |
| UGUACAUGUCAGCGAGUGAUGUUCGACGAUACCAGACUCGAUAGAGUCCCUUGGCAGCGUAACGCAUGCCAAACUGGCAUGUACU [#SwitchBubble 9 #K4Early] | 0.789 | 0.819 | 1.12 | 0.646 | 0.773 |
| UGUGGUGUAUCCUUUAGGAGUGAUGUUUUUCGAGGACCGGUACGGCCGCCACUCGAGUGAUGAGAGCGUCGUUGUGGUGGUUUGU [#16 K4 Tryptophan A Exclusion] | 1.06 | 0.698 | 1.19 | 0.697 | 0.73 |
| CAACCGUAACACGAUACCAGCCUAGAAGCCAGUGAUGUUGGCCUUUUUUCGGAAAUGAAAGGCCCUUGGCAGCGUGGAUAAAAUG [Lelabiised] | 0.451 | 0.464 | 0.505 | 0.379 | 0.501 |
| GGUGGACUAGUCGAGUGAUGUUCGAGGCAUCGAGGACCGGUACGGCCGCCACUCGCAAAUCUACCGUGCGUUAACCACCAAAGUG [theeternabot_sameState_KL_Trp_A_37] | 0.295 | 0.152 | 0.304 | 0.317 | 0.344 |
| AGCAGUCCAGGAUCGAAAGAUCCUGAGGUCCGAGGACCGGUACGGCCGCCACUCGGAGUGAUGUUCCGAAGACUGCAAAAUAAAA [#SwitchBubble 5] | 0.302 | 0.236 | 0.108 | 0.135 | 0.105 |
| GAUUUAGAGGCGGCCGCCACUAGUGAUGUUAGUGAUGUUUGAUACGGAAUAUAUCUGCGAGUAGAUAGGACCGGGCCAGAUGGAG [rttrbmullin] | 0.207 | 0.15 | 0.17 | 0.184 | 0.181 |
| UGAUUGCCAGUGAUGUUGGCAUAUACUGAAGGAGCGCGUGAAAACGCAGGUAGGUCGCAGUUCCUUGCCAAUUGAUCGAAAGAUC [KL-XArg-A1] | 0.13 | 0.138 | 0.137 | 0.15 | 0.127 |

| Sequence | apparent KD of K4 kissing-loop reporter (input ligand: FMN 200 uM) [µM] | apparent KD of K4 kissing-loop reporter (input ligand: arginine 13.2 mM) [µM] | apparent KD of K4 kissing-loop reporter (input ligand: none) [µM] | apparent KD of K4 kissing-loop reporter [1] [µM] | apparent KD of K4 kissing-loop reporter [2] [µM] |
| --- | --- | --- | --- | --- | --- |
| AGAAGGAGAACUGCAAGAACUCCUUCAGACUAGGAUAUCAGGAAACUGAGAAGGAGUCAACUUGCAGUGAUGUUGCAAGAAUAAU [[F]''-[K]'-[F]'-[F1]-[F2]-[K1]-[K2]_Design1] | 0.155 | 0.114 | 0.119 | 0.103 | 0.131 |
| UGUUGAGUGAUGUUCGAUGUAGUUCAUUCAGAGGAUAUAGGGUGGGCUAGAAGGCUGAAAAGUGCUUCGAGUGAUGUUCGAAGAU [Exclusion FMN A GF 7] | 0.0773 | 0.0777 | 0.0993 | 0.0895 | 0.0911 |
| AUACGUUUAAGUGAUACCAGACUGGUGAGUGAUGUUUACCAAUAAAUUAAAUUAUUAGCUGUCCCUUGGCAGCACAGUUUAUUUA [JR_ExcTheophyB_Sub005] | 0.258 | 0.33 | 0.317 | 0.323 | 0.229 |
| AAACGCUUGAAUAACAAGCGAAUAAAUUCGCGAGGACCGGUACGGCCGCCACUCGCUAACUGCGAGUGAUGUUCGAUAAUAAAAU [Mat - Mod of OpenEnded 3 - D14] | 0.115 | 0.0919 | 0.17 | 0.176 | 0.095 |
| CUGGGUUGACGAAAAGUCAACAAACGAGAAGGAGCGCACGAAAGUGCAGGUAGGUCGCUCAGUCCAGUGAUGUUGGAACAUCCAG [#SwitchBubble 8 #K4Late] | 0.664 | 0.498 | 0.462 | 0.508 | 0.436 |
| AGGGAUGUUAAAGGAUAUAGAAAGUGAUGUUAGAAAGUGAGUGAUGUUGAUGUUAGUGAUGUUAUGUUAGAAGGUUAACAAAACG [a] | 0.256 | 0.149 | 0.211 | 0.192 | 0.161 |
| AAGAGGUAGGCGGCCGCCACUAGUUGUGAACACAUACGAGCCAGUGAUGUUGGUAUGGUGGGCGGUAGGACCGGGCCUACCUGAA [Exclusion - Tryptophan B (Freestyle 18)] | 0.427 | 0.481 | 0.496 | 0.454 | 0.475 |
| UCGGACCCUGGAGGAUAUGAGUCUAGUGAUGUUAGGCGGUCCAUGCGCGUGGCGCGUUAUGCCCUUUUAGAAGGCCAGGGUCCGA [#2 Exclusion - FMN B Attempt #15 (HarryS)] | 0.113 | 0.0724 | 0.104 | 0.0907 | 0.0846 |
| UAAUCCUAGUGAUAAUUAUCAAGUGGUGGGCGAGGACCGGUACGGCCGCCACUCGAAUAUGCAGUGAUGUUGUAAUCCGGAUAAU [Exclusion - Tryptophan A (Freestyle 7)] | 0.639 | 0.636 | 0.534 | 0.715 | 0.441 |
| GCCGUAGAUUGAAGGAGCGAGGCUACUUAAAGACCGAGUGAUGUUCGGGAACGUGAAACUCCUCAGGUAGGUCGCAAUCUACGGC | 0.284 | 0.235 | 0.28 | 0.227 | 0.267 |
| AAAUAAAACUAUGAUACCAGUCAUCACAGAGUGAUGUUUUGUGGCAUUUUAAACUUGGCAGACCCUUGGCAGCAUGAUAUAGGAG [theeternabot_sameState_KL_Theo_B_8] | 0.486 | 0.207 | 0.318 | 0.358 | 0.261 |
| GGUCCGCACAUGAGUGAUGUUCAUGUAGAUACCAGUAUCGAAAGAUACCCUUGGCAGCUACGGCACGGACCGGCGGGAAACCGCC | 0.213 | 0.2 | 0.194 | 0.291 | 0.184 |
| GCAAUUCUCAGUGAUGUUGAGUAAUCGGAAGGAGCGCGUGAAAACGCAGGUAGGUCGCCGAAACAUGAAGUAUCUUCGUGUUUGC [Arginine A K4 24] | 0.18 | 0.19 | 0.215 | 0.226 | 0.168 |
| AAGGUAUCACCACAACAUCACUAAGGUGAUACCAGCAUCGAAAGAUGCCCUUGGCAGCACCAACUUGCAGUGAUGUUGCAAGUAA [(T)'-(H)'-(T1)-(T2)-(H1)-(H2)_Design9] | 0.417 | 0.31 | 0.365 | 0.438 | 0.366 |
| UAGAGCAUCGCAGGAUAUCCUGCUUAACGUUGGAUUCCAGUGAUGUUGGAAAGCCGGCCUAGGGUAGGAGAAGGGCGGAUUUGAA [Edvean] | 0.171 | 0.151 | 0.215 | 0.322 | 0.149 |
| CAUGGACUUCCAGUGUAUCCAUGACUGGAUACCAGUCAGGAAACUGACCCUUGGCAGCCAGAACUGGAAGUGAUGUUUCCAGUAA [Design8] | 0.227 | 0.214 | 0.244 | 0.244 | 0.24 |
| AGCUCAGAGUGACUCGAUAAGAGUCACAAACGAGGACCGGUACGGCCGCCACUCGAAAUAACGAGAGUGAUGUUUUCGCUGAGCA [FiskerMod 6 - Jieux - Same State Tryptophan A] | 0.935 | 0.63 | 0.857 | 0.66 | 0.541 |
| GGGUGGCAGGCGGCCGCCACUCUUAGCAGCCAGUGAGUGAUGUUCGUGGCGGAAGAAUGUUCGUAGAGGACCGGGUUUGUUGUUC [Same State Tryptophan B GF 21] | 0.262 | 0.18 | 0.257 | 0.254 | 0.216 |
| CUCACAGUGAUGUUGUGGGCCGAGAGUGAUACCAGCCGUAUUUGUGGCCCUUGGCAGCGCAAAAGCCGAGUGAUGUUCGAAUCGG [Same State Theophylline A GF 24] | 0.211 | 0.196 | 0.207 | 0.19 | 0.192 |
| GAAUUAUGUAGAAGGAGCGUUAGAAGGUAUAGGUGUGAGUGAUGUUCGGAUUUGUUAAUUUGACAGGUAGGUCGCUACAGAAGGA [KL-SSArg B17 #analogue] | 0.435 | 0.267 | 0.242 | 0.132 | 0.106 |
| GCGCGUCAUGUCAGCGGUGACACUGUCGAUACCAGCGCCGCAAGGCGCCCUUGGCAGCGACGUGCUGGAGUGAUGUUCCAGCGUC [#2 Exclusion - Theophylline A Attempt #22 (HarryS)] | 0.159 | 0.113 | 0.145 | 0.142 | 0.14 |

From the supplement of paper PMC9170038
